Substitutions are numbered along the chain they refer to.

B1: 22B3 (antibody, V domains shown)
VH: EVQLVQSGGGLVHPGGSLRLSCEGSGFTFSSNGMHWVRQTPGKGLEWVSGIGTAGGTYYADSVKGRFTISRDNVKKSLYLQMNSLRAEDMAIYYCVRKNWGWFDPWGQGALVTVSS
VL: EIVLTQSPATLSLSPGERATLSCRASQSVNSYLAWFQQKPGQAPRLLIYDASNRATGIPARFSGSGSGTDFTLTISSLEPEDFAIYYCQQRSNWPPFTFGQGTKLEIKR
B2: 9H7 (antibody, V domains shown)
VH: B1 VH with N99D
VL: B1 VL with V29I, N30S, F36Y, I85V, N93K, F97Y
B3: 16E1 (antibody, V domains shown)
VH: EVQLVQSGGGLVHPGGSLRLSCAGSGFTFSGHALHWVRQAPGKGLEWVSGIGTHGGTYYADSVKGRFTISRDNAKNSLFLQMNSLSAEDMAVYYCTRRNWGQFDYWGQGTLVTVSS
VL: B1 VL with N30S, F36Y, I85V, F97Y
B4: 2E11 (antibody, V domains shown)
VH: EVQLVQSGGDLVHPGGSLRLSCVGSGFTFSHYPLHWVRQAPGKGLEWISGIHTGGGTYYTDSVKGRFTISSDNAKNSLYLQMNTLRAEDMAVYYCARGRNSFDYWGQGTLVIVSS
VL: DIQMTQSPSSLSASVGDRVTITCRASQGISSWLAWYQQKPEKAPKSLIYAASSLQSGVPSRFSGSGSGTDFTLTISSLQSEDFATYYCQQYNSYPPTFGQGTRLEIKR
B5: 18B2 (antibody, V domains shown)
VH: EVQLVQSGGGLVHPGGSLRLSCVGSRFTFSAYPMHWVRQAPGKGLEWVSGIGSGGGTNYADSVKGRFTISRDTAKNSLYLQMNSLRAEDMAVYYCARGRNSFDYWGQGTLVTVSS
VL: B4 VL with S31T, S80P, R103K, L104V
B6: 2D8 (antibody, V domains shown)
VH: B1 VH with E23A, N32Y, T40A, A54G, K76N, I92V, V96A, P105Y, A110T
VL: B1 VL with V29I, N30S, F36Y, I85V, N93K, F97Y

One experiment concerns the target T1, E. coli mOPGL 158 (mouse, UniProt O35235).
T1 chain: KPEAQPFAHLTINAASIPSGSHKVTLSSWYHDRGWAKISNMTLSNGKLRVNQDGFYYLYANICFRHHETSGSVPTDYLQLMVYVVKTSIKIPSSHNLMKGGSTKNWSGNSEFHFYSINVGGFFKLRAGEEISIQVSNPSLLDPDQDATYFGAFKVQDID
The experiment in a line: SPR.
Take B1: the binding result is “no binding”.
B2: the binding result is “no binding”.
With B3, the binding result is “no binding”.
Same read-out and setting: next, B4: “no binding”.

In a further experiment the target is T2, FLAG-murine OPGL[158-316]/DE (mouse, UniProt O35235).
T2 chain: T1 chain with S72D, V73L, P74A, D76E
The experiment in a line: ELISA.
Turning to B5, the binding result is given as “no binding”.
On the same count and under the same terms, next, B4: “no binding”.

A further experiment deals with T3, CHO hOPGL 140 (human, UniProt O14788).
T3 chain: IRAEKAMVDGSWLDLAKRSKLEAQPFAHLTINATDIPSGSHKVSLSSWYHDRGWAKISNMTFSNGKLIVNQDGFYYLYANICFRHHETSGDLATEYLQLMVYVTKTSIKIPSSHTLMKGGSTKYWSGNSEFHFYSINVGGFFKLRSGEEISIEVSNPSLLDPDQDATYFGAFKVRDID
The experiment in a line: SPR. On the technique in general: SPR reads the build-up and loss of mass on a sensor chip optically.
Molecule B6 had a Kd of 0.092 nM.
For the molecule B1, binding was put at a Kd of 0.0337 nM. This Kd lies about 2.7-fold lower than the previous one.
For the molecule B2, the Kd was 0.193 nM. This Kd lies about 5.7-fold higher than the previous one.
On the same count and under the same terms, next, B3: 0.0633 nM; B5: 0.211 nM.
In the case of B4, the affinity, expressed as Kd, was 0.292 nM.

In the next experiment the target is T1, E. coli mOPGL 158. Kind of experiment: ELISA. A general note: An ELISA detects its analyte on a solid surface through an enzyme-linked reagent.
As to B6, the binding result is “no binding”.
As to B5, the binding result was “no binding”.

As usually defined, the Kd is the equilibrium constant for the complex coming apart. The low end stands for a tighter complex, the high end for a looser complex.

The values above are taken from US20100209435 (published 2010).
